Assay results published in patent publication US20220025023A1 (AC IMMUNE, published 2022).
Where no end group is shown, it is not given here.

T1: TDP-3 peptide (human)
T1 construct: Irrelevant control peptide; conjugated to Luminex beads in the assay; also called TDP-43 aa 310-370; irrelevant target
T1 peptide: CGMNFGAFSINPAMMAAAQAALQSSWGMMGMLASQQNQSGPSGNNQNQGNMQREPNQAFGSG

T2: TP-25 peptide (human, also: biotinylated, site not given here)
T2 construct: 15-mer of human TDP-43 from the library spanning aa 199-285; captured on streptavidin plates
T2 peptide: VMDVFIPKPFRAFAF

T3: TP-24 peptide (human, also: biotinylated, site not given here)
T3 construct: 15-mer of human TDP-43 from the library spanning aa 199-285; captured on streptavidin plates
T3 peptide: REFFSQYGDVMDVFI

T4: TP-29 (also: biotinylated, site not given here)
T4 construct: also called TP-29 peptide
T4 peptide: ISVHISNAEPKHNSN

T5: TP-31 (also: biotinylated, site not given here)
T5 construct: also called TP-31 peptide
T5 peptide: ERSGRFGGNPGGFGN

T6: TP-26 (also: biotinylated, site not given here)
T6 construct: also called TP-26 peptide
T6 peptide: FRAFAFVTFADDQIA

T7: TP-27 (also: biotinylated, site not given here)
T7 construct: also called TP-27 peptide
T7 peptide: ADDQIAQSLCGEDLI

T8: TP-28 (also: biotinylated, site not given here)
T8 construct: also called TP-28 peptide
T8 peptide: CGEDLIIKGISVHIS

T9: TP-30 (also: biotinylated, site not given here)
T9 construct: also called TP-30 peptide
T9 peptide: PKHNSNRQLERSGRF

T10: TDP-1 peptide (human)
T10 construct: Immunogen peptide; conjugated to Luminex beads in the assay; also called TDP-43 aa 212-272
T10 peptide: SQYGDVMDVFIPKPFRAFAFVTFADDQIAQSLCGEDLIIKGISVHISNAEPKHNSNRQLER

T11: TDP-218 peptide (human)
T11 construct: 8-mer of human TDP-43; same ELISA method as for the biotinylated 15-mers
T11 peptide: MDVFIPKP

T12: TDP-214 peptide (human)
T12 construct: 8-mer of human TDP-43; same ELISA method as for the biotinylated 15-mers
T12 peptide: YGDVMDVF

T13: TDP-217 peptide (human)
T13 construct: 8-mer of human TDP-43; same ELISA method as for the biotinylated 15-mers
T13 peptide: VMDVFIPK

T14: TDP-222 peptide (human)
T14 construct: 8-mer of human TDP-43; same ELISA method as for the biotinylated 15-mers
T14 peptide: IPKPFRAF

T15: TDP-212 peptide (human)
T15 construct: 8-mer of human TDP-43; same ELISA method as for the biotinylated 15-mers
T15 peptide: SQYGDVMD

T16: TDP-211 peptide (human)
T16 construct: 8-mer of human TDP-43; same ELISA method as for the biotinylated 15-mers
T16 peptide: FSQYGDVM

T17: TDP-220 peptide (human)
T17 construct: 8-mer of human TDP-43; same ELISA method as for the biotinylated 15-mers
T17 peptide: VFIPKPFR

T18: TDP-213 peptide (human)
T18 construct: 8-mer of human TDP-43; same ELISA method as for the biotinylated 15-mers
T18 peptide: QYGDVMDV

T19: TDP-210 peptide (human)
T19 construct: 8-mer of human TDP-43; same ELISA method as for the biotinylated 15-mers
T19 peptide: FFSQYGDV

T20: TDP-223 peptide (human)
T20 construct: 8-mer of human TDP-43; same ELISA method as for the biotinylated 15-mers
T20 peptide: PKPFRAFA

T21: TDP-224 peptide (human)
T21 construct: 8-mer of human TDP-43; same ELISA method as for the biotinylated 15-mers
T21 peptide: KPFRAFAF

T22: TDP-219 peptide (human)
T22 construct: 8-mer of human TDP-43; same ELISA method as for the biotinylated 15-mers
T22 peptide: DVFIPKPF

T23: TDP-221 peptide (human)
T23 construct: 8-mer of human TDP-43; same ELISA method as for the biotinylated 15-mers
T23 peptide: FIPKPFRA

T24: TDP-216 peptide (human)
T24 construct: 8-mer of human TDP-43; same ELISA method as for the biotinylated 15-mers
T24 peptide: DVMDVFIP

T25: TDP-215 peptide (human)
T25 construct: same ELISA method as for the biotinylated 15-mers
T25 peptide: GDVMDVFI


Columns and labels:
[1] = biological target: T26, recombinant human full-length TDP-43 (human, UniProt Q13148 1-414); test: Luminex bead assay, antibody serial dilution, FL TDP-43 beads
T26 construct: Recombinant full-length protein; also called FL TDP-43; recFL TDP-43

[2] = biological target: T26, recombinant human full-length TDP-43; test: SPR avidity (Biacore T200), TDP-43 monomer immobilised, antibody as analyte, 1:1 model
Method: Avidity measurements were performed on an SPR instrument (Biacore T200, GE Healthcare Life Sciences) using CM5 Series S sensor chips. Recombinant human FL TDP-43 monomers or aggregated recombinant human FL TDP-43 was immobilized on a CM5 chip using amine coupling, injecting at a flow rate of 5 μl/min for 420 seconds. Conditions were optimized so that less than 200 RU protein was immobilized. Binding of the antibodies and the control antibody (2E2-D3) were obtained by injecting at: 1.37, 4.11, 12.33, 37, 111, and 333 nM in 1×PBS P+ at a flow rate of 50 μl/min for 90 s contact time and 600 s dissociation phase, with three regeneration cycles of the ligand surface by 10 mM Glycine-HCl (pH 1.7). Kinetics were analyzed using a 1:1 fitting model (see FIG. 8).

BSA = biological target: T27, BSA (bovine, UniProt P02769); test: indirect ELISA, control coat in the 15-mer series, hybridoma supernatant
T27 construct: not specified; also called bovine serum albumin

TDP-3 peptide = biological target: T1, TDP-3 peptide; test: Luminex bead assay, TDP-3 peptide beads (irrelevant target)
TP-25 peptide = biological target: T2, TP-25 peptide; test: indirect ELISA, biotinylated 15-mer peptide on streptavidin plate, hybridoma supernatant
Method: (§1) Serum-free supernatants were harvested from stable hybridomas. The supernatants containing antibodies of interest were then screened by an indirect ELISA assay to determine epitopes. Epitopes were mapped using a library of TDP-43 15-mer peptides. Briefly, 96-well streptavidin-coated 96-well ELISA plates were incubated with 5 μg/mL of biotinylated 15-mer peptides spanning the amino acids (aa) 199-285 of human TDP-43 with 9 aa offset and 6 aa overlap. Plates were washed thoroughly with 0.05% Tween-20/PBS and then blocked with 1% bovine serum albumin (BSA) in 0.05% Tween-20/PBS for 1 hour at 37° C. The antibody contained in the hybridoma supernatant was then added at the indicated dilutions, and incubated for 2 hours at 37° C. after which the plates were washed as described previously. An AP-conjugated anti-mouse IgG secondary antibody (Jackson ImmunoResearch Laboratories, United Kingdom) was added at 1/1000 dilution in 0.05% Tween-20/PBS for 1 hour at 37° C. After the final wash, plates were incubated with pNPP (Sigma-Aldrich, Switzerland) an AP substrate solution, and read at 405 nm using an ELISA plate reader (Tecan).

TP-24 peptide = biological target: T3, TP-24 peptide; test: as above
Method: as §1

TP-29 = biological target: T4, TP-29; test: indirect ELISA, biotinylated 15-mer on streptavidin plate, hybridoma supernatant
Method: as §1

TP-31 = biological target: T5, TP-31; test: as above
Method: as §1

TP-26 = biological target: T6, TP-26; test: as above
Method: as §1

TP-27 = biological target: T7, TP-27; test: as above
Method: as §1

TP-28 = biological target: T8, TP-28; test: as above
Method: as §1

TP-30 = biological target: T9, TP-30; test: as above
Method: as §1

TDP-1 peptide = biological target: T10, TDP-1 peptide; test: Luminex bead assay, antibody serial dilution, TDP-1 peptide beads
TDP-218 peptide = biological target: T11, TDP-218 peptide; test: indirect ELISA, 8-mer peptide library
Method: as §1
(§2) Furthermore, antibodies were tested using an indirect ELISA on a peptide library of 8-mer peptides with 7 aa overlap covering the sequence of human TDP-43 from aa 210 to aa 231, using the same ELISA method as describe previously in this section.

TDP-214 peptide = biological target: T12, TDP-214 peptide; test: indirect ELISA, 8-mer peptide library
Method: as §1, §2

TDP-217 peptide = biological target: T13, TDP-217 peptide; test: indirect ELISA, 8-mer peptide library
Method: as §1, §2

TDP-222 peptide = biological target: T14, TDP-222 peptide; test: indirect ELISA, 8-mer peptide library
Method: as §1, §2

TDP-212 peptide = biological target: T15, TDP-212 peptide; test: indirect ELISA, 8-mer peptide library
Method: as §1, §2

TDP-211 peptide = biological target: T16, TDP-211 peptide; test: indirect ELISA, 8-mer peptide library
Method: as §1, §2

TDP-220 peptide = biological target: T17, TDP-220 peptide; test: indirect ELISA, 8-mer peptide library
Method: as §1, §2

TDP-213 peptide = biological target: T18, TDP-213 peptide; test: indirect ELISA, 8-mer peptide library
Method: as §1, §2

TDP-210 peptide = biological target: T19, TDP-210 peptide; test: indirect ELISA, 8-mer peptide library
Method: as §1, §2

TDP-223 peptide = biological target: T20, TDP-223 peptide; test: indirect ELISA, 8-mer peptide library
Method: as §1, §2

TDP-224 peptide = biological target: T21, TDP-224 peptide; test: indirect ELISA, 8-mer peptide library
Method: as §1, §2

TDP-219 peptide = biological target: T22, TDP-219 peptide; test: indirect ELISA, 8-mer peptide library
Method: as §1, §2

TDP-221 peptide = biological target: T23, TDP-221 peptide; test: indirect ELISA, 8-mer peptide library
Method: as §1, §2

TDP-216 peptide = biological target: T24, TDP-216 peptide; test: indirect ELISA, 8-mer peptide library
Method: as §1, §2

TDP-215 peptide = biological target: T25, TDP-215 peptide; test: indirect ELISA, 8-mer peptide library, OD 405 nm
Method: as §1, §2

T26 sequence (Q13148 whole entry): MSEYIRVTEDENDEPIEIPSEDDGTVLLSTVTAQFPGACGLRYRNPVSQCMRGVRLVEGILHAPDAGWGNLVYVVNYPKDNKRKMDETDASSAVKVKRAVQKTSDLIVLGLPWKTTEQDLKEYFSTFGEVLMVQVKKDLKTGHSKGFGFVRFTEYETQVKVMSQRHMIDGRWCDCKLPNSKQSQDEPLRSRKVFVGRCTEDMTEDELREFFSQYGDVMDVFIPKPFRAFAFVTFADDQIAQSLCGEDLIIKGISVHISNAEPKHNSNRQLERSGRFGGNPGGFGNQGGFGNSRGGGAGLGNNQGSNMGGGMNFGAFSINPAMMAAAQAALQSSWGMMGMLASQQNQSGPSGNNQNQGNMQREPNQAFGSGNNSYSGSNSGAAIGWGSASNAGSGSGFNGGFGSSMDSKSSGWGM
T27 sequence (P02769 25-607 limits assumed): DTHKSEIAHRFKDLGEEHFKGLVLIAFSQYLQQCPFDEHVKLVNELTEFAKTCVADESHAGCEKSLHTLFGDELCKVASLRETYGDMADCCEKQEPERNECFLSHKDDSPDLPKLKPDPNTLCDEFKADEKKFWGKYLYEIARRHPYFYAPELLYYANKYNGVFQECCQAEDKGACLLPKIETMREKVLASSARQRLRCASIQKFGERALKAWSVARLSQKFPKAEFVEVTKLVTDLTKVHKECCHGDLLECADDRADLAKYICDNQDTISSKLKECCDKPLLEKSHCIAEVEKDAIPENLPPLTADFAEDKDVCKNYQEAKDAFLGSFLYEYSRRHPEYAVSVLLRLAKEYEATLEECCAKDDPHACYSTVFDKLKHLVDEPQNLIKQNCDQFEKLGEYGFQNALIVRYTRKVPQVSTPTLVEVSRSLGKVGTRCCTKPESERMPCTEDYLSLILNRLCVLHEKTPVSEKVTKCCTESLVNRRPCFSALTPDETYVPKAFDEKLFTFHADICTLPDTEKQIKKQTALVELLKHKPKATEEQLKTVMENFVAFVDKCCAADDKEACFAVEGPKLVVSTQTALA

Binder | binding result (BSA) | binding result (TDP-3 peptide) | OD (TP-25 peptide) | OD (TP-24 peptide) | binding result (TP-29) | binding result (TP-31) | binding result (TP-26) | binding result (TP-27) | binding result (TP-28) | binding result (TP-30) | EC50 (TDP-1 peptide) | further results
ACI-7062-415H10-Ab2 (antibody, IgG3, V domains shown, also called 415H10B7; clone 17) VH: DVQLVESGGGLVQPGGSRKLSCAASGFTFSSFGMHWVRQAPEKGLEWVAYISSGSSNIYYTDTVKGRFTISRDNPKNTLFLQMTSLRSEDTAIYYCARSGTTVPFDYWGQGTTLTVSS VL: not shown | no binding | no binding | 1.2 O.D. (405 nm) | 3.9 O.D. (405 nm) | no binding | no binding | no binding | no binding | no binding | no binding | < 0.01 nM | EC50 [1]: 0.16 nM; Kd [2]: 1.1 nM
ACI-7062-414A5-Ab1 (antibody, IgG2a, V domains shown, also called 414A5D2; clone 12) VH: DVQLVESGGGLVQPGGSRRLSCAASGFTFSSFGMHWVRQAPEKGLEWVAYIRSGSDIIYYADTVKGRFTISRDNPENTLFLEMTRLRSEDTAMYYCARSGTTVPFDYWGQGTSLTVSS VL: not shown | no binding | no binding | 1.2 O.D. (405 nm) | 3.9 O.D. (405 nm) | no binding | no binding | no binding | no binding | no binding | no binding | < 0.01 nM | binding result (TDP-218 peptide): no binding; binding result (TDP-214 peptide): no binding; binding result (TDP-217 peptide): no binding; binding result (TDP-222 peptide): no binding; binding result (TDP-212 peptide): no binding; binding result (TDP-211 peptide): no binding; binding result (TDP-220 peptide): no binding; binding result (TDP-213 peptide): no binding; binding result (TDP-210 peptide): no binding; binding result (TDP-223 peptide): no binding; binding result (TDP-224 peptide): no binding; binding result (TDP-219 peptide): no binding; binding result (TDP-221 peptide): no binding; binding result (TDP-216 peptide): no binding; binding result (TDP-215 peptide): binds
